± gives the standard deviation of the averaged measurements.

One data set relates to hTERT-HMEC. Description: percentage of EdU-negative (G0-arrested) nuclei per well, 72 h; higher = more G0 arrest. The following applies: reference: sequence is the full UniProt precursor, the tested protein was the secreted form or ectodomain.
A further data set relates to MCF7. The description is as above. The note with it: reference: sequence is the full UniProt precursor, the tested protein was the secreted form or ectodomain.
Setting [1] is: protein concentration 0.0147125 µM.
The mark [2] stands for this setting: protein concentration 0.147125 µM.
The mark [3] stands for this setting: protein concentration 0.0125 µM.
[4] abbreviates: protein concentration 0.0225 µM.
[5] abbreviates: protein concentration 0.0143975 µM.
Setting [6] is: protein concentration 0.0290625 µM.
[7] abbreviates: protein concentration 0.143975 µM.
[8] abbreviates: protein concentration 0.290625 µM.
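Note: secreted proteins added to cultured cells, EdU pulse at the end, nuclei found by Hoechst imaging, EdU status from nuclear versus surrounding ring intensity ratio, PBS as neutral control.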

Turning to “MDTPRVLLSAVFLISFLWDLPGFQQASISSSSSSAELGSTKGMRSRKEGKMQRAPRDSDAGREGQEPQPRPQDEPRAQQPRAQEPPGRGPRVVPHEYMLSIYRTYSIAEKLGINASFFQSSKSANTITSFVDRGLDDLSHTPLRRQKYLFDVSMLSDKEELVGAELRLFRQAPSAPWGPPAGPLHVQLFPCLSPLLLDARTLDPQGAPPAGWEVFDVWQGLRHQPWKQLCLELRAAWGELDAGEAEARARGPQQPPPPDLRSLGFGRRVRPPQERALLVVFTRSQRKNLFAEMREQLGSAEAAGPGAGAEGSWPPPSGAPDARPWLPSPGRRRRRTAFASRHGKRHGKKSRLRCSKKPLHVNFKELGWDDWIIAPLEYEAYHCEGVCDFPLRSHLEPTNHAIIQTLMNSMDPGSTPPSCCVPTKLTPISILYIDAGNNVVYKQYEDMVVESCGCR [Q6KF10]”, the “percentage of EdU-negative” value in the data set on hTERT-HMEC (setting [1]) turned out to be 4.28 ± 0.073%; with hTERT-HMEC (setting [2]), 5.35 ± 0.57%; in the data set with MCF7 (setting [1]), 25.3 ± 1.3%; in the data set on MCF7 (setting [2]) it was 28.7 ± 2.5%.

On to “MDTRNKAQLLVLLTLLSVLFSQTSAWPLYRAPSALRLGDRIPFEGANEPDQVSLKEDIDMLQNALAENDTPYYDVSRNARHADGVFTSDFSKLLGQLSAKKYLESLMGKRVSSNISEDPVPVKRHSDAVFTDNYTRLRKQMAVKKYLNSILNGKRSSEGESPDFPEELEK”, for which the “percentage of EdU-negative” value in the data set with hTERT-HMEC (setting [3]) amounted to 5.76 ± 0.37%; in the data set with hTERT-HMEC (protein concentration 0.125 µM) it was 5.43 ± 0.065%; with MCF7 (setting [3]), 27.7 ± 3.4%; with MCF7 (protein concentration 0.125 µM), 22.42 ± 0.17%.

With “MDWSFFRVVAMLFIFLVVVEVNSEFRIQVRDYNTKNGTIKWHSIRRQKREWIKFAAACREGEDNSKRNPIAKIHSDCAANQQVTYRISGVGIDQPPYGIFVINQKTGEINITSIVDREVTPFFIIYCRALNSMGQDLERPLELRVRVLDINDNPPVFSMATFAGQIEENSNANTLVMILNATDADEPNNLNSKIAFKIIRQEPSDSPMFIINRNTGEIRTMNNFLDREQYGQYALAVRGSDRDGGADGMSAECECNIKILDVNDNIPYMEQSSYTIEIQENTLNSNLLEIRVIDLDEEFSANWMAVIFFISGNEGNWFEIEMNERTNVGILKVVKPLDYEAMQSLQLSIGVRNKAEFHHSIMSQYKLKASAISVTVLNVIEGPVFRPGSKTYVVTGNMGSNDKVGDFVATDLDTGRPSTTVRYVMGNNPADLLAVDSRTGKLTLKNKVTKEQYNMLGGKYQGTILSIDDNLQRTCTGTININIQSFGNDDRTNTEPNTKITTNTGRQESTSSTNYDTSTTSTDSSQVYSSEPGNGAKDLLSDNVHFGPAGIGLLIMGFLVLGLVPFLMICCDCGGAPRSAAGFEPVPECSDGAIHSWAVEGPQPEPRDITTVIPQIPPDNANIIECIDNSGVYTNEYGGREMQDLGGGERMTGFELTEGVKTSGMPEICQEYSGTLRRNSMRECREGGLNMNFMESYFCQKAYAYADEDEGRPSNDCLLIYDIEGVGSPAGSVGCCSFIGEDLDDSFLDTLGPKFKKLADISLGKESYPDLDPSWPPQSTEPVCLPQETEPVVSGHPPISPHFGTTTVISESTYPSGPGVLHPKPILDPLGYGNVTVTESYTTSDTLKPSVHVHDNRPASNVVVTERVVGPISGADLHGMLEMPDLRDGSNVIVTERVIAPSSSLPTSLTIHHPRESSNVVVTERVIQPTSGMIGSLSMHPELANAHNVIVTERVVSGAGVTGISGTTGISGGIGSSGLVGTSMGAGSGALSGAGISGGGIGLSSLGGTASIGHMRSSSDHHFNQTIGSASPSTARSRITKYSTVQYSK”, the “percentage of EdU-negative” value with hTERT-HMEC (protein concentration 0.014 µM) turned out to be 5.37 ± 1.1%; with hTERT-HMEC (protein concentration 0.14 µM) it was 5.1 ± 0.58%; in the data set with MCF7 (protein concentration 0.014 µM) it was 25.17 ± 0.14%; with MCF7 (protein concentration 0.14 µM), 28.1 ± 0.79%.

Consider “MDYPTLLLALLHVYRALCEEVLWHTSVPFAENMSLECVYPSMGILTQVEWFKIGTQQDSIAIFSPTHGMVIRKPYAERVYFLNSTMASNNMTLFFRNASEDDVGYYSCSLYTYPQGTWQKVIQVVQSDSFEAAVPSNSHIVSEPGKNVTLTCQPQMTWPVQAVRWEKIQPRQIDLLTYCNLVHGRNFTSKFPRQIVSNCSHGRWSVIVIPDVTVSDSGLYRCYLQASAGENETFVMRLTVAEGKTDNQYTLFVAGGTVLLLLFVISITTIIVIFLNRRRRRERRDLFTESWDTQKAPNNYRSPISTSQPTNQSMDDTREDIYVNYPTFSRRPKTRV”, for which the “percentage of EdU-negative” value in the data set with hTERT-HMEC (setting [4]) was determined as 4.86 ± 0.72%; in the data set with hTERT-HMEC (protein concentration 0.225 µM) it was 5.13 ± 0.67%; in the data set on MCF7 (setting [4]) it was 25.5 ± 2.7%; in the data set on MCF7 (protein concentration 0.225 µM), 23.8 ± 1.8%.

Consider “MEACCLLQLPQRLLLLGAAALTATALETADLAELCGQTWQGDGLLLRSHAASRRFYFVAPDTDCGLWVQAAAPGDRIRFQFRFFLVYSLTPAPPALNTSSPAPADPCAPGSYLQFYEGPPGAPRPLGSPLCGLNIPVPVASSGPFLGLRLVTRGRQPRVDFVGEVTSFRLGPCGAYFRCQNGRCIPSSLVCDPWGMDNCGDGSDQGSWSPADCRGPSPVPSQTGSTDAHTSRSLTPSPALGSAGSLWIAAERSSPAGRDPTRQDAALEGSTE [Q5SZI1]”, for which the “percentage of EdU-negative” value in the data set on hTERT-HMEC (setting [4]) was determined as 5.13 ± 0.83%; in the data set with hTERT-HMEC (protein concentration 0.225 µM), 5.979 ± 0.048%; in the data set on MCF7 (setting [4]), 24.6 ± 1.8%; with MCF7 (protein concentration 0.225 µM) it was 25.3 ± 0.88%.

For the sequence “MEALMARGALTGPLRALCLLGCLLSHAAAAPSPIIKFPGDVAPKTDKELAVQYLNTFYGCPKESCNLFVLKDTLKKMQKFFGLPQTGDLDQNTIETMRKPRCGNPDVANYNFFPRKPKWDKNQITYRIIGYTPDLDPETVDDAFARAFQVWSDVTPLRFSRIHDGEADIMINFGRWEHGDGYPFDGKDGLLAHAFAPGTGVGGDSHFDDDELWTLGEGQVVRVKYGNADGEYCKFPFLFNGKEYNSCTDTGRSDGFLWCSTTYNFEKDGKYGFCPHEALFTMGGNAEGQPCKFPFRFQGTSYDSCTTEGRTDGYRWCGTTEDYDRDKKYGFCPETAMSTVGGNSEGAPCVFPFTFLGNKYESCTSAGRSDGKMWCATTANYDDDRKWGFCPDQGYSLFLVAAHEFGHAMGLEHSQDPGALMAPIYTYTKNFRLSQDDIKGIQELYGASPDIDLGTGPTPTLGPVTPEICKQDIVFDGIAQIRGEIFFFKDRFIWRTVTPRDKPMGPLLVATFWPELPEKIDAVYEAPQEEKAVFFAGNEYWIYSASTLERGYPKPLTSLGLPPDVQRVDAAFNWSKNKKTYIFAGDKFWRYNEVKKKMDPGFPKLIADAWNAIPDNLDAVVDLQGGGHSYFFKGAYYLKLENQSLKSVKFGSIKSDWLGC”, the “percentage of EdU-negative” value was 4.84 ± 0.7% with hTERT-HMEC (setting [5]); 5.59 ± 1.1% in the data set on hTERT-HMEC (setting [6]); 9.87 ± 1.2% in the data set on hTERT-HMEC (setting [7]); 4.97 ± 0.54% in the data set on hTERT-HMEC (setting [8]); 23.9 ± 0.91% with MCF7 (setting [5]); 26.7 ± 1.5% in the data set on MCF7 (setting [6]). For the same sequence, the “percentage of EdU-negative” value was determined as 25.25 ± 0.19% in the data set with MCF7 (setting [7]) and 27.8 ± 0.84% with MCF7 (setting [8]).

On to “MEALPLLAATTPDHGRHRRLLLLPLLLFLLPAGAVQGWETEERPRTREEECHFYAGGQVYPGEASRVSVADHSLHLSKAKISKPAPYWEGTAVIDGEFKELKLTDYRGKYLVFFFYPLDFTFVCPTEIIAFGDRLEEFRSINTEVVACSVDSQFTHLAWINTPRRQGGLGPIRIPLLSDLTHQISKDYGVYLEDSGHTLRGLFIIDDKGILRQITLNDLPVGRSVDETLRLVQAFQYTDKHGEVCPAGWKPGSETIIPDPAGKLKYFDKLN”, for which the “percentage of EdU-negative” value in the data set with hTERT-HMEC (setting [4]) came out at 5.57 ± 1.3%; with hTERT-HMEC (protein concentration 0.225 µM) it was 4.84 ± 0.26%; in the data set on MCF7 (setting [4]) it was 26.1 ± 1.3%; in the data set with MCF7 (protein concentration 0.225 µM) it was 27.8 ± 0.15%.

(Values after the supplement of paper PMC11316812.)
